The values below come from publication PMC7360120.

The assay addresses HA-ELKS1αB.

In turn, “GST-Rab6B Q72L (from UniProt P61294 1-208) (natural protein)” had a fraction of synapses with mito-Rab6-tagged mitochondria in neurons co-expressing mito-Rab6BQL and HA-ELKS1αB, compared to inactive Rab6B (mito-Rab6BTN) or HA-ELKS1^∆955-971 of 2 fold.
